What was measured:
[1] = target: αIIbβ3 integrin headpiece (UniProt P08514); experiment: crystal structure
[2] = system: αIIbβ3 headpiece ligand binding site; experiment: Occupancy of ligand binding site by soaked RGD peptide; details: 10 mM GRGDSP, Mg/Ca (5 mM Mg/1 mM Ca), 24 h, closed headpiece crystals
[3] = target: T1, β3 subunit PSI, hybrid, βI, and I-EGF-1 domains (UniProt P05106); experiment: crystal structure
T1 sequence: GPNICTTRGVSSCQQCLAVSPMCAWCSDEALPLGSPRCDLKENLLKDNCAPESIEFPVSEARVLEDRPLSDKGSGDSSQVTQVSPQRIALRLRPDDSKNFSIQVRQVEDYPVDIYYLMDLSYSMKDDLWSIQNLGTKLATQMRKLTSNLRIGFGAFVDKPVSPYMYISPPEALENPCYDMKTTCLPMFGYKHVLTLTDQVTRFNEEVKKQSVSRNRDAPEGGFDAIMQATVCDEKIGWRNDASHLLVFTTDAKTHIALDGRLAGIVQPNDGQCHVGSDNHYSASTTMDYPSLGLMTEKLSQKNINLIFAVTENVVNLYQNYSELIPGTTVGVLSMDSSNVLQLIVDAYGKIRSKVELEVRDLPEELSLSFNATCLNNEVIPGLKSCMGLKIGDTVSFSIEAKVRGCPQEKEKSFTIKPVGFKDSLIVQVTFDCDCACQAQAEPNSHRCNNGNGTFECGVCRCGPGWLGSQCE

[4] = target: T2, αIIb subunit β-propeller domain (UniProt P08514); experiment: crystal structure
T2 sequence: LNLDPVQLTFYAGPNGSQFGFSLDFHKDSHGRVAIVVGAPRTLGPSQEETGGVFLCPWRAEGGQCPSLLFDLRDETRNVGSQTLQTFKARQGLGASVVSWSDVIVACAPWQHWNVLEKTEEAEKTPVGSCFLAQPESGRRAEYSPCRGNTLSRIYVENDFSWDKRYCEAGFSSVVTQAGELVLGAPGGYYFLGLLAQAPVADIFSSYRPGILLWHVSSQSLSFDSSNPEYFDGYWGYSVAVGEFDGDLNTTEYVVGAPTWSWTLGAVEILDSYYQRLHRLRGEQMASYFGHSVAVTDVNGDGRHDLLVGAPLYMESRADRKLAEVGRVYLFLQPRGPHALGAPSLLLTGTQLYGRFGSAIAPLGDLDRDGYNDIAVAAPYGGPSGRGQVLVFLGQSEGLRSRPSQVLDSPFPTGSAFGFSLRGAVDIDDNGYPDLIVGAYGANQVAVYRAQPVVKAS

[5] = target: T3, αIIbβ3 integrin headpiece (UniProt P08514;P05106); experiment: crystal structure
T3 sequence 1: T2 sequence
T3 sequence 2: T1 sequence

[6] = system: α4β7 headpiece; details: EM; ref Yu et al., 2012; cited from earlier work

GRGDSP peptide
Kd [1]: 0.34 to 10 mM | fold higher affinity of the open than of the closed headpiece [1]: > 200 fold

N=C(N)NCCC[C@H](NC(=O)CN)C(=O)NCC(=O)N[C@@H](CC(=O)O)C(=O)N[C@@H](CO)C(=O)N1CCC[C@H]1C(=O)O [GRGDSP]
Bound ligand / occupation of the ligand binding site [2]: diffraction revealed bound peptide

B1: GRGDSP peptide (peptide)
peptide: GRGDSP
binding result [3]: binds | binding result [4]: binds

B2: GRGDSPK peptide (peptide)
peptide: GRGDSPK
binding result [5]: binds

B3: MAdCAM-1: ligand binding to the α4β7 headpiece (protein, UniProt Q13477 19-382, looked up)
Mucosal addressin cell …: QSLQVKPLQVEPPEPVVAVALGASRQLTCRLACADRGASVQWRGLDTSLGAVQSDTGRSVLTVRNASLSAAGTRVCVGSCGGRTFQHTVQLLVYAFPDQLTVSPAALVPGDPEVACTAHKVTPVDPNALSFSLLVGGQELEGAQALGPEVQEEEEEPQGDEDVLFRVTERWRLPPLGTPVPPALYCQATMRLPGLELSHRQAIPVLHSPTSPEPPDTTSPESPDTTSPESPDTTSQEPPDTTSPEPPDKTSPEPAPQQGSTHTPRSPGSTRTRRPEISQAGPTQGEVIPTGSSKPAGDQLPAALWTSSAVLGLLLLALPTYHLWKRCRHLAEDDTHPPASLRLLPQVSAWAGLRGTGQVGISPS
State of the headpiece upon binding [6]: either an intermediate or open state

— PMC3691460 (The Journal of Cell Biology, 2013)
